From article PMC6595482 (Molecular microbiology, 2018)

Target: E. coli RNA polymerase (E. coli) (UniProt P0A7Z4)
Sequence (P0A7Z4 whole entry, looked up): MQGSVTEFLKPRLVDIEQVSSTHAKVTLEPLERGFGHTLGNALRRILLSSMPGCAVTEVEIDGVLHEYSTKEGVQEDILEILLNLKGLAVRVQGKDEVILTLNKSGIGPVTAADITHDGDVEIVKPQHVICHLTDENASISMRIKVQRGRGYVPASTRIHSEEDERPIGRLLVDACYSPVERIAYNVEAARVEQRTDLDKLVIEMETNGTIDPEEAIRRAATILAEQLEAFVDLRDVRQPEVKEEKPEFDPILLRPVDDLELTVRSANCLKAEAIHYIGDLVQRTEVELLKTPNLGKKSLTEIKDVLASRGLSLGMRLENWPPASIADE

B1: Escherichia coli RfaH (natural protein)
chain: MQSWYLLYCKRGQLQRAQEHLERQAVNCLAPMITLEKIVRGKRTAVSEPLFPNYLFVEFDPEVIHTTTINATRGVSHFVRFGASPAIVPSAVIHQLSVYKPKDIVDPATPYPGDKVIITEGAFEGFQAIFTEPDGEARSMLLLNLINKEIKHSVKNTEFRKL
Exo III footprinting of the upstream boundary of the ops TEC (100 nM RfaH): 7 nt
